Test results as given in patent publication US20250281611A1 (BIOSCEPTRE AUST, published 2025).
Blank lines part the entries; values can stand above or below the binder they belong to.

How the values were obtained:
CD79B = target: T1, CD79B (UniProt P40259 29-229, limits assumed); assay: flow cytometry, JeKo-1 cells
T1 construct: whole, on cells
T1 sequence (looked up): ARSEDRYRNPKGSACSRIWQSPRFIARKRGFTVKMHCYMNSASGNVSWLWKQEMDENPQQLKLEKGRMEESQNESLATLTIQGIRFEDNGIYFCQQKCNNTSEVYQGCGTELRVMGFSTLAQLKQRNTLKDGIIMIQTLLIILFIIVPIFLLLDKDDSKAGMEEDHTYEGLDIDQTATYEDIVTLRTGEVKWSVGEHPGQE

ROR1 = target: T2, ROR1 (UniProt Q01973 30-937, limits assumed); assay: flow cytometry, JeKo-1 cells
T2 construct: whole, on cells

CD70 = target: T3, CD70 (UniProt P32970 1-193, limits assumed); assay: flow cytometry, Raji cells
T3 construct: whole, on cells
T3 sequence (looked up): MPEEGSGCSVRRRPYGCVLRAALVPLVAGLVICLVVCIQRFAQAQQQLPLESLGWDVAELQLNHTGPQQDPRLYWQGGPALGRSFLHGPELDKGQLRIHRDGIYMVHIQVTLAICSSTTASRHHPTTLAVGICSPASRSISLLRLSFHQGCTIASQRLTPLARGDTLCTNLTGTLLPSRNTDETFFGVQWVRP

CD123 = target: T4, CD123 (UniProt P26951 19-378, limits assumed); assay: flow cytometry, MOLM-13 cells
T4 construct: whole, on cells; also called IL3RA
T4 sequence (P26951 19-378 limits assumed): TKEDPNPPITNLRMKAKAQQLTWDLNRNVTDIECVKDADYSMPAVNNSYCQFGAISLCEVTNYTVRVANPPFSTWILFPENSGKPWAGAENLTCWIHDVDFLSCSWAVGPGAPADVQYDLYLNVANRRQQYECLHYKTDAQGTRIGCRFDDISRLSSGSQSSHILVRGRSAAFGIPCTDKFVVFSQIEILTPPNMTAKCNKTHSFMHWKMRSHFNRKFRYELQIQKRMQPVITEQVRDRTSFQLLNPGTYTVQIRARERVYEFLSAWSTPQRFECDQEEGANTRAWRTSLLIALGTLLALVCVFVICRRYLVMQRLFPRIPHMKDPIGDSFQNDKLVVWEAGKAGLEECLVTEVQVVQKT

CD22 = target: T5, CD22 (UniProt P20273 20-847, limits assumed); assay: flow cytometry, Raji cells
T5 construct: whole, on cells

CD19 [1] = target: T6, CD19 (UniProt P15391 20-556, limits assumed); assay: flow cytometry, JeKo-1 cells, bridge at saturating conc., BIL03s-AF647 detection
T6 construct: whole, on cells; also called CD19 on JeKo-1
T6 sequence (looked up): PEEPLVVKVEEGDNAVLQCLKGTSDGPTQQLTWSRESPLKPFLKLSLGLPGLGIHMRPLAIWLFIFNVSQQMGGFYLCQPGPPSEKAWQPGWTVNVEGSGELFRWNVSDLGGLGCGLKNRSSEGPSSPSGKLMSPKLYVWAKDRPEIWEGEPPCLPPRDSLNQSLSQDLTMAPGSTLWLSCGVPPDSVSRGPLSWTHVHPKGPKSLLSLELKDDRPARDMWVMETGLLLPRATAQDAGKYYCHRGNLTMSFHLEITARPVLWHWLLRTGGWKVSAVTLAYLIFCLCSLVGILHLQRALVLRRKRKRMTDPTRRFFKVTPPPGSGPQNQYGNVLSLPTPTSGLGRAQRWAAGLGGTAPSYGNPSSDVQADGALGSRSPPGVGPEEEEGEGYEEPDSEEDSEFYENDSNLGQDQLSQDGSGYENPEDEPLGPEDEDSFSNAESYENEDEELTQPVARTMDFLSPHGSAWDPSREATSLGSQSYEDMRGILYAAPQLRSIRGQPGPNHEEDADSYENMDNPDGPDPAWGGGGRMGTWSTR
Description: (§1) JeKo-1 cells were incubated with different CD19 BRiDGE variants at saturating concentrations. […] The MFI intensity correlates with the number of secondary bound antibodies bound to the CD19 BRiDGE variants that are only detected if they are bound to the JeKo-1 cells. MFI: median fluorescence intensity. BLitz: Bio-Layer interferometry (BLI) technology using HIS-tag identification tips. […] The higher the MFIR, the stronger the binding.

CD19 [2] = target: T6, CD19; assay: flow cytometry, JeKo-1 cells, bridge at saturating conc., anti-His-FITC detection
Description: as §1

nfP2X7 CAR 1 [3] = target: T7, nfP2X7 CAR 1; assay: flow cytometry, anti-His-FITC, MFI on EGFR+ (CAR+) over EGFR- (CAR-) T cells
T7 construct: CAR-positive cells gated by the co-expressed EGFR marker; also called nfP2X7 targeted CAR; nfP2X7 CAR on EGFR+ T cells
In short: (§2)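 CAR T cells incubated with BRiDGE variants at saturating concentrations; bound BRiDGE detected with anti-His-FITC by flow cytometry. EGFR marks CAR expression. Value is median fluorescence intensity on EGFR+ (CAR+) cells divided by that on EGFR− (CAR−) cells.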

nfP2X7 CAR 1 [4] = target: T7, nfP2X7 CAR 1; assay: flow cytometry, anti-His-FITC, MFI on EGFR+ (CAR+) T cells over background 0.44
In short: as §2

CD19 [5] = target: T6, CD19; assay: flow cytometry, JeKo-1 cells, anti-His-FITC detection, MFI over no-bridge control
Description: as §1

nfP2X7 CAR 1 [6] = target: T7, nfP2X7 CAR 1; assay: flow cytometry, nfP2X7 CAR 1 T cells (EGFR+ gate), anti-His-FITC detection
CD19 [7] = target: T6, CD19; assay: flow cytometry, JeKo-1 cells, BIL03s-AF647 detection, MFI over no-bridge control
Description: as §1

CD135 = target: T8, CD135 (UniProt P36888 27-993, limits assumed); assay: flow cytometry, MOLM-13 cells
T8 construct: whole, on cells; also called FLT-3

CD37 = target: T9, CD37 (UniProt P11049 1-281, limits assumed); assay: flow cytometry, JeKo-1 cells
T9 construct: whole, on cells
T9 sequence (looked up): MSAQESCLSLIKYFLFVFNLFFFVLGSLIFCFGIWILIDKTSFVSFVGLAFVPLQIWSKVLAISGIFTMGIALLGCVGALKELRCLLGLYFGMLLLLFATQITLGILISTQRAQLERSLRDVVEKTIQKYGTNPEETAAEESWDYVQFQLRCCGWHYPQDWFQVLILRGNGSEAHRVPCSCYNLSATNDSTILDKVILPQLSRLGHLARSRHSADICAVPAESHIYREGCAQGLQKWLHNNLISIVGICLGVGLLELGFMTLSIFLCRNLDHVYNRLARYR

BCMA = target: T10, BCMA (UniProt Q02223 1-184, limits assumed); assay: flow cytometry, RPMI 8226 cells
T10 construct: whole, on cells
T10 sequence (looked up): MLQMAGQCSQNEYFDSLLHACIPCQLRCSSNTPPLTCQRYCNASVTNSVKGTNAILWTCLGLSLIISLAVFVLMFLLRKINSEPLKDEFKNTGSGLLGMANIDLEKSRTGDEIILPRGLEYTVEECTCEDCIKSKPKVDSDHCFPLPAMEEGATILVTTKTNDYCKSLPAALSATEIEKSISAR

binding result (CD79B): binds
B1: CD79B bridging molecule (E200 + CD79B binder, Polatuzumab, B025) (Fab, V domains shown)
VH: EVQLVESGGGLVQPGGSLRLSCAASGYTFSSYWIEWVRQAPGKGLEWIGEILPGGGDTNYNEIFKGRATFSADTSKNTAYLQMNSLRAEDTAVYYCTRRVPIRLDYWGQGTLVTVSS
VL: DIQLTQSPSSLSASVGDRVTITCKASQSVDYEGDSFLNWYQQKPGKAPKLLIYAASNLESGVPSRFSGSGSGTDFTLTISSLQPEDFATYYCQQSNEDPLTFGQGTKVEIKR

binding result (ROR1): binds
B2: ROR1 bridging molecule (E200 + ROR-1 binder, clone D10v3, B044) (Fab, V domains shown)
VH: QVQLKESGPGLVAPSQTLSITCTVSGFSLTSYGVHWVRQPPGKGLEWLGVIWAGGFTNYNSALKSRLSISKDNSKSQVLLKMTSLQTDDTAMYYCARRGSSYSMDYWGQGTSVTVSS
VL: EIVLSQSPAITAASLGQKVTITCSASSNVSYIHWYQQRSGTSPRPWIYEISKLASGVPVRFSGSGSGTSYSLTISSMEAEDAAIYYCQQWNYPLITFGSGTKLEIQR

binding result (CD70): binds
B3: CD70 bridging molecule (E200 + CD70 binder, Cusatuzumab, B028) (Fab, V domains shown)
VH: EVQLVESGGGLVQPGGSLRLSCAASGFTFSVYYMNWVRQAPGKGLEWVSDINNEGGTTYYADSVKGRFTISRDNSKNSLYLQMNSLRAEDTAVYYCARDAGYSNHVPIFDSWGQGTLVTVSS
VL: SQAVVTQEPSLTVSPGGTVTLTCGLKSGSVTSDNFPTWYQQTPGQAPRLLIYNTNTRHSGVPDRFSGSILGNKAALTITGAQADDEAEYFCALFISNPSVEFGGGTQLTVLK

binding result (CD123): binds
B4: CD123 bridging molecule (E200 + CD123 binder, clone 32716, B042) (Fab, V domains shown)
VH: QIQLVQSGPELKKPGETVKISCKASGYIFTNYGMNWVKQAPGKSFKWMGWINTYTGESTYSADFKGRFAFSLETSASTAYLHINDLKNEDTATYFCARSGGYDPMDYWGQGTSVTVSS
VL: DIVLTQSPASLAVSLGQRATISCRASESVDNYGNTFMHWYQQKPGQPPKLLIYRASNLESGIPARFSGSGSRTDFTLTINPVEADDVATYYCQQSNEDPPTFGAGTKLELKR

binding result (CD22): binds
B5: CD22 bridging molecule (E200 + CD22 binder, m971-L7, B023) (Fab, V domains shown)
VH: QVQLQQSGPGMVKPSQTLSLTCAISGDSVSSNSVAWNWIRQSPSRGLEWLGRTYYRSTWYNDYAVSMKSRITINPDTNKNQFSLQLNSVTPEDTAVYYCAREVTGDLEDAFDIWGQGTMVTVSS
VL: DIQMIQSPSSLSASVGDRVTITCRASQTIWSYLNWYRQRPGEAPNLLIYAASSLQSGVPSRFSGRGSGTDFTLTISSLQAEDFATYYCQQSYSIPQTFGQGTKLEIKR

MFI Bil03 AF647 (CD19 [1]): 9.49 | MFI HisTag FITC (CD19 [2]): 2.31 | HisTag MFI Ratio of EGFR+/EGFR- (nfP2X7 CAR 1 [3]): 4.1 | HisTag MFI Ratio (background 0.44) (nfP2X7 CAR 1 [4]): 5.7 | MFIR HisTag FITC (CD19 [5]): 3 | MFI HisTag FITC in EGFR+ Population (nfP2X7 CAR 1 [6]): 2.51 | MFIR BIL03 AF647 (CD19 [7]): 20.6
B6: CD19 BRIDGE variant B35 (Fab)
heavy: EVQLVESGGGLVKPGGSLKLSCAASGYTFTSYVMHWVRQAPGKGLEWIGYINPYNDGTKYNEKFQGRVTISSDKSISTAYMELSSLRSEDTAMYYCARGTYYYGTRVFDYWGQGTLVTVSSASTKGPSVFPLAPSSKSTSGGTAALGCLVKDYFPEPVTVSWNSGALTSGVHTFPAVLQSSGLYSLSSVVTVPSSSLGTQTYICNVNHKPSNTKVDKKVEPKSCHHHHHH
light: DFPGHNYTTRNILPGLNITSTFHKTSGSGKGSEPKSSDKTHTGGGGSDIVMTQSPATLSLSPGERATLSCRSSKSLQNVNGNTYLYWFQQKPGQSPQLLIYRMSNLNSGVPDRFSGSGSGTEFTLTISSLEPEDFAVYYCMQHLEYPITFGAGTKLEIKRTVAAPSVFIFPPSDEQLKSGTASVVCLLNNFYPREAKVQWKVDNALQSGNSQESVTEQDSKDSTYSLSSTLTLSKADYEKHKVYACEVTHQGLSSPVTKSFNRGEC

MFI Bil03 AF647 (CD19 [1]): 9.15 | MFI HisTag FITC (CD19 [2]): 2.29 | HisTag MFI Ratio of EGFR+/EGFR- (nfP2X7 CAR 1 [3]): 4.2 | HisTag MFI Ratio (background 0.44) (nfP2X7 CAR 1 [4]): 5.5 | MFIR HisTag FITC (CD19 [5]): 2.97 | MFI HisTag FITC in EGFR+ Population (nfP2X7 CAR 1 [6]): 2.41 | MFIR BIL03 AF647 (CD19 [7]): 19.9
B7: CD19 BRIDGE variant B36 (Fab)
heavy: B6 heavy
light: DFPGHNYTTRNILPGLNITSTFHKTSGSGKGGGGSEPKSSDKTHTGGGGSDIVMTQSPATLSLSPGERATLSCRSSKSLQNVNGNTYLYWFQQKPGQSPQLLIYRMSNLNSGVPDRFSGSGSGTEFTLTISSLEPEDFAVYYCMQHLEYPITFGAGTKLEIKRTVAAPSVFIFPPSDEQLKSGTASVVCLLNNFYPREAKVQWKVDNALQSGNSQESVTEQDSKDSTYSLSSTLTLSKADYEKHKVYACEVTHQGLSSPVTKSFNRGEC

binding result (CD135): binds
B8: CD135 bridging molecule (E200 + CD135 binder, clone 4G8, B041) (Fab, V domains shown)
VH: QVQLQQPGAELVKPGASLKLSCKSSGYTFTSYWMHWVRQRPGHGLEWIGEIDPSDSYKDYNQKFKDKATLTVDRSSNTAYMHLSSLTSDDSAVYYCARAITTTPFDFWGQGTTLTVSS
VL: DIVLTQSPATLSVTPGDSVSLSCRASQSISNNLHWYQQKSHESPRLLIKYASQSISGIPSRFSGSGSGTDFTLSINSVETEDFGVYFCQQSNTWPYTFGGGTKLEIKR

binding result (CD37): binds
B9: CD37 bridging molecule (E200 + CD37 binder, Otlertuzumab, B026) (Fab, V domains shown)
VH: EVQLVQSGAEVKKPGESLKISCKGSGYSFTGYNMNWVRQMPGKGLEWMGNIDPYYGGTTYNRKFKGQVTISADKSISTAYLQWSSLKASDTAMYYCARSVGPFDSWGQGTLVTVSS
VL: EIVLTQSPATLSLSPGERATLSCRASENVYSYLAWYQQKPGQAPRLLIYFAKTLAEGIPARFSGSGSGTDFTLTISSLEPEDFAVYYCQHHSDNPWTFGQGTKVEIKR

binding result (BCMA): binds
B10: BCMA bridging molecule (E200 + BCMA binder, clone CA8 J9M0, B039) (Fab, V domains shown)
VH: QVQLVQSGAEVKKPGSSVKVSCKGSGYTFTNYWMHWVRQAPGQGLEWIGATYRGHSDTYYNQKFKGRATLTADTSTSTAYMELSSLRSEDTAVYYCTRGAIYDGYDVLDNWGQGTLVTVSS
VL: DIQMTQSPSSLSASVGDRVTITCSASQDISNYLNWYQQKPGKAPKLLIYYTSNLHSGVPSRFSGSGSGTDFTLTISSLQPEDFATYYCQQYRKLPWTFGQGTKLEIKR
